B1: Recombinant soluble EPCR with a 6x His tag (EPCRH) (receptor, human, UniProt Q9UNN8 18-210, looked up)
chain: SQDASDGLQRLHMLQISYFRDPYHVWYQGNASLGGHLTHVLEGPDTNTTIIQLQPLQEPESWARTQSGLQSYLLQFHGLVRLVHQERTLAFPLTIRCFLGCELPPEGSRAHVFFEVAVNGSSFVSFRPERALWQADTQVTSGVVTFTLQQLNAYNRTRYELREFLEDTCVQYVQKHISAENTKGSQTSRSYTS
notes: Endothelial protein C receptor, human, extracellular region residues S18-S210, amplified from a human lung endothelium cDNA library; glycosylated (migrates at about 40 kDa); also called recombinant EPCR; not shown: His6, C-terminal, kept

Key:
[1] = molecular target: T1, VAR19-NTS-DBLγ6 (N-terminal region of IT4-VAR19 comprising the full-length DC8 cassette) (Plasmodium falciparum (IT4 strain), UniProt A3R6S3 2-1713); experiment: SPR; EPCRH immobilised on a CM5 chip by amine coupling (1324 RU); IT4-VAR19 proteins injected 180 s, dissociation 400 s; HBS-EP buffer, 25 °C; Biacore X100; global 1:1 Langmuir fit; details: both partners purified
T1 construct: PfEMP1 IT4-VAR19, Plasmodium falciparum IT4 (FCR3) strain, residues G2-P1713 (NTS, DBLα2, CIDRα1.1, DBLβ12, DBLγ6); synthetic codon-optimised gene; also called NTS-DBLɣ6; IT4-VAR19-DC8 cassette; not shown: His6, C-terminal, kept

[2] = molecular target: B1; experiment: as above; details: both partners purified

Binder | Kd [1] [nM] | koff [1] [s⁻¹] | kon [1] [M⁻¹ s⁻¹] | Kd [2] [nM] | koff [2] [s⁻¹] | kon [2] [M⁻¹ s⁻¹]
B1 | 52 | 0.0011 | 22000 |  |  | 
VAR19-CIDRα1.1 (domain or fragment, PfEMP1 IT4-VAR19, CIDRα1.1 domain, residues S580-P739, amplified from IT4 genomic DNA) SVECFHSWAKNLLIDTIRWEHQLKNCINNTNVTDCTSKCIKNCECYEKWIKEKEKEWPQVKGVLKKKDETSHNYYDKLKDVFDRFLFEVKGALDQDEKGKWDQFTKDLEKKFGPSVESAGTANSQDAIELLLDHLNDNATTCKDNNSLAVENCPKTKINP |  |  |  | 340 | 0.012 | 35000

Source: publication PMC4672576, “Beninese children with cerebral malaria do not develop humoral immunity against the IT4-VAR19-DC8 PfEMP1 variant linked to EPCR and brain endothelial binding” (Malaria Journal, 2015)
